Test results as given in patent US9839701B2, “Aromatic amino acid derivative and positron emission topography (PET) probe using the same” (OSAKA UNIVERSITY, priority 2013, dated 2017).

Substrate: N[C@@H](Cc1ccc(O)cc1)C(=O)O
Assay: Promoting effect on amino acid efflux from human LAT2 stably expressing cell line
Assay type: cell-based
Conditions: other: Km for amino acid efflux, Table 7; 37.0 °C
Description: In the same manner as in Example 3, the human LAT1 stably expressing cell line and the human LAT2 stably expressing cell line were seeded on separate collagen-coated 24-well plates, and after 48 hours, the cells were washed with an uptake buffer prewarmed at 37° C. An uptake buffer supplemented with 1 μM of [^14C]L-leucine or [^14C]L-alanine was added to each well, and [^14C]L-leucine or [^14C]L-alanine uptake by the cells was allowed to proceed at 37° C. for 10 minutes. The cells were washed with an uptake buffer prewarmed at 37° C., treated with the compound of Example 1 or the positive control FAMT at 1, 2, 3, 5, 10, 20, 50, 100 or 200 μM, and incubated at 37° C. for 1 minute, and the supernatants were collected. The radioactivity in each supernatant was measured as the radioactivity of the amino acid released from the cells. Subsequently, 500 μL of 0.1 M NaOH was added to each well for cell lysis, 20 μL of the lysate was used for the measurement of the protein concentration, and the remaining lysate was used for the measurement of the residual radioactivity in the cells. The sum of the residual radioactivity and the released radioactivity in each experiment was checked to confirm that there was no great difference in the total radioactivity incorporated into the cells at the preloading among the experiments. […]

B1: human LAT2 (Homo sapiens) (protein)
chain: MEEGARHRNNTEKKHPGGGESDASPEAGSGGGGVALKKEIGLVSACGIIVGNIIGSGIFVSPKGVLENAGSVGLALIVWIVTGFITVVGALCYAELGVTIPKSGGDYSYVKDIFGGLAGFLRLWIAVLVIYPTNQAVIALTFSNYVLQPLFPTCFPPESGLRLLAAICLLLLTWVNCSSVRWATRVQDIFTAGKLLALALIIIMGIVQICKGEYFWLEPKNAFENFQEPDIGLVALAFLQGSFAYGGWNFLNYVTEELVDPYKNLPRAIFISIPLVTFVYVFANVAYVTAMSPQELLASNAVAVTFGEKLLGVMAWIMPISVALSTFGGVNGSLFTSSRLFFAGAREGHLPSVLAMIHVKRCTPIPALLFTCISTLLMLVTSDMYTLINYVGFINYLFYGVTVAGQIVLRWKKPDIPRPIKINLLFPIIYLLFWAFLLVFSLWSEPVVCGIGLAIMLTGVPVYFLGVYWQHKPKCFSDFIELLTLVSQKMCVVVYPEVERGSGTEEANEDMEEQQQPMYQPTPTKDKDVAGQPQP
notes: expressed in transfected cells
  Km: 32.7 µM
